From PMC7387793, “Structural Basis and Evolution of Glycan Receptor Specificities within the Polyomavirus Family” (mBio, 2020) come the findings set out here.

What is called stoichiometry N is the number of molecules, sites or subunits per partner or assembly.

One assay has as its target T1, GhPyV VP1 (Goose hemorrhagic polyomavirus, UniProt A0A860PKB9).
T1 construct: truncated VP1, residues 21-286, E. coli BL21(DE3), His tag cut by thrombin (GSHM left), pentamer; site includes counterclockwise monomer
In words: X-ray crystal structure (soak). As to conditions: crystal soaked with 20 mM 2-O-Me-Neu5Ac, 17 h, MES/imidazole pH 6.5, 1.95 Å; BC2 loop site. The class given is binding.

Assay [1] concerns the target Chimpanzee polyomavirus (ChPyV) major capsid protein VP1, N- and C-terminally truncated, C154S (chimpanzee polyomavirus (ChPyV)). Put plainly: crystal structure; X-ray structures of truncated, assembly-incompetent VP1 pentamers, native and soaked with sialylated glycans; solved by molecular replacement with 5-fold NCS restraints.
The target in assay [2] is Finch polyomavirus (FiPyV) major capsid protein VP1, amino acids 22 to 291, C78S C92S (finch polyomavirus (FiPyV)). Described as above.
Assay [3] concerns the target Goose hemorrhagic polyomavirus (GhPyV) major capsid protein VP1, amino acids 21 to 286 (goose hemorrhagic polyomavirus (GhPyV)). Described as above.
In assay [4] the target is Human polyomavirus 12 (HPyV12) major capsid protein VP1, amino acids 27 to 299 (human polyomavirus 12 (HPyV12)). The description is as above.
Assay [5] concerns the target New Jersey polyomavirus (NJPyV) major capsid protein VP1, amino acids 36 to 323 (New Jersey polyomavirus-2013 (NJPyV)). The description is as above.
The target in assay [6] is Sheep polyomavirus (ShPyV) major capsid protein VP1, amino acids 20 to 285, C95S (sheep polyomavirus (ShPyV)). The description is as above.

With `CO[C@]1(C(=O)O)C[C@H](O)[C@@H](NC(C)=O)[C@H]([C@H](O)[C@H](O)CO)O1` [2-O-Me-Neu5Ac], the “X-ray crystal structure (soak)” value at GhPyV VP1 is reported as “GhPyV VP1 with 2-O-Me-Neu5Ac”.

Molecule “Chimpanzee polyomavirus (ChPyV) major capsid protein VP1, N- and C-terminally truncated, C154S (domain or fragment)” yielded a stoichiometry N in assay [1] of 5. As to “Finch polyomavirus (FiPyV) major capsid protein VP1, amino acids 22 to 291, C78S C92S (domain or fragment)”, in assay [2], the stoichiometry N stood at 5. With “Goose hemorrhagic polyomavirus (GhPyV) major capsid protein VP1, amino acids 21 to 286 (domain or fragment)”, the stoichiometry N in assay [3] worked out at 5. Take “Human polyomavirus 12 (HPyV12) major capsid protein VP1, amino acids 27 to 299 (domain or fragment)”: the stoichiometry N in assay [4] turned out to be 5. Molecule “New Jersey polyomavirus (NJPyV) major capsid protein VP1, amino acids 36 to 323 (domain or fragment)” displayed a stoichiometry N in assay [5] of 5. The molecule “Sheep polyomavirus (ShPyV) major capsid protein VP1, amino acids 20 to 285, C95S (domain or fragment)” returned a stoichiometry N in assay [6] of 5.
